Results published in US10000775B2, “Biosynthesis of 1-undecene and related terminal olefins” (The Regents of the University of California, priority 2013, dated 2018).

Assay: Stoichiometry determination in single-turnover reactions
Assay type: biochemical
Protocol: FIG. 27 illustrates the requirement for O2 for PFL_4321 activity.
To investigate 1-undecene formation and the O2 consumption, 0.5 mL of reaction mixture was prepared to contain 50 mM MES buffer (pH 6.2), 300 mM NaCl, 45 μM PFL_4321-Fe(II), and 500 μM LA (25 mM stock solution of LA sodium salt was prepared in 2% tergitol; tergitol is not required for <150 μM of LA). MES buffer (pH 6.2) was selected to reach slightly higher enzymatic activity than other buffers such as Bis-Tris (pH 6.0-7.0), Tris (pH 7.5-8.5), MOPS (pH 6.5-7.5), and HEPES (pH 6.8-8.0). The reaction was performed in a sealed headspace vial, initiated by adding PFL_4321 at room temperature and quenched by injecting equal volume of 5 M NaOH. 1-undecene production was analyzed and quantified using the SPME-GCMS method. The correlations of total 1-undecene produced and enzyme used were further determined varying PFL_4321 concentrations (40-1000 μM), and similar single turnover reactions were obtained in all assays (˜0.7-0.8 molecule of 1-undecene per molecule of PFL_4321-Fe(II)). O2 concentration was measured in a sealed reaction chamber (0.5 mL) with an integrated oxygen electrode unit (Oxygraph Plus System, Hansatech Instruments, UK). For the control group, LA was omitted from the reaction mixture.

[1] = measured stoichiometry, aerobic

B1: PFL_4321: protein of 261 amino acids from Pseudomonas fluorescens Pf-5; non-heme iron (II)-dependent enzyme converting medium-chain fatty acids into terminal olefins (protein, listed as Pseudomonas fluorescens)
chain: MIDTFSRTGPLMEAASYPAWTQQLIQDCSESKRRVVEHELYQRMRDNKLSAKVMRQYLIGGWPVVEQFALYMAQNLTKTRFARHPGEDMARRWLMRNIRVELNHADYWVHWSRAHGVTLEDLQAQQVPPELHALSHWCWHTSSADSLIVAIAATNYAIEGATGEWSALVCSNGIYAAAFPEEDRKRAMKWLKMHAQYDDAHPWEALEIIVTLAGLNPTKALQAELRQAICKSYDYMYLFLERCMQQEKTAVTRERLALAEG
For B1, the “1-undecene produced per molecule of PFL_4321-Fe(II)” value [1] was “approximately one”, the “O2 consumed per molecule of PFL_4321-Fe(II)” value [1] was “approximately one” and the “total 1-undecene produced per enzyme used” value (single turnover reactions, PFL_4321 40-1000 μM) was 0.7-0.8 molecule of 1-undecene per molecule of PFL_4321-Fe(II).
